Data: paper PMC11344281 (Protein Science : A Publication of the Protein Society, 2024)

B1: U_SNAP (Sec20, aa 133–198; Use1, aa 174–239), chimeric Qbc-SNARE with the SNAP-25 linker (other)
chain: QTSSSITESLMGISRMMSQQVQQSEEAMQTLVSSSRTLLDANEEFKSMSGTIQLGRKLITKYNRREGLSVSPSNKLKSSDAYKKAWGNNQDGVVASQPARVVDEREQMAISGGFIRRVTNDQRHQGLQEKLAEEMLGLARSLKTNTLAAQSVIKKDNQTLSHSLKMADQNLEKLKLESERLEQHAQK
B2: Sec20 SNARE domain (aa 133–198) (domain or fragment)
chain: QTSSSITESLMGISRMMSQQVQQSEEAMQTLVSSSRTLLDANEEFKSMSGTIQLGRKLITKYNRRE
B3: syntaxin 18 SNARE domain (aa 229–312) (domain or fragment)
chain: EEIQMFEQENQRLIGEMNSLFDEVRQIEGKVVEISRLQEIFTEKVLQQETEIDSIHQLVVGATENIKEGNEDIREAIKNNAGFR
B4: Use1 SNARE domain (aa 174–239) (domain or fragment)
chain: QRHQGLQEKLAEEMLGLARSLKTNTLAAQSVIKKDNQTLSHSLKMADQNLEKLKLESERLEQHAQK

Assays:
[1] = molecular target: B3; assay: native gel or EMSA
[2] = molecular target: B3; assay: native gel or EMSA + SEC
[3] = molecular target: B4; assay: native gel or EMSA + SEC
[4] = molecular target: synaptobrevin 2 (aa 1–96) (Rattus norvegicus, UniProt P63045 1-96); assay: native gel or EMSA + SEC
Chain of synaptobrevin 2 (aa 1–96) (P63045 1-96): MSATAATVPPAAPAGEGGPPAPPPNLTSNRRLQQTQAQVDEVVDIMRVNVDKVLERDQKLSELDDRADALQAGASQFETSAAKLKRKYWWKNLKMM

Binder: B1
binding result [1]: binds

Binder: B2
binding result [2]: binds
binding result [3]: binds

Binder: B3
binding result [4]: binds

Binder: B4
binding result [2]: binds
